Reference: patent US20130039850A1

Assays:
[1] = biological target: recombinant soluble human CD4 (human) (UniProt P01730); assay: BIAcore; rCD4 coupled to chip, mAb flowed (avidity)
[2] = biological target: recombinant soluble human CD4 (human) (UniProt P01730); assay: SPR sensor chip; sCD4 amine-coupled, antibody flowed over

Substance: mouse anti-human CD4 monoclonal antibody Leu3a (Becton Dickinson)
- Ka [1]: 3.7e+10 M⁻¹
- koff [1]: 4.2e-06 s⁻¹
- kon [1]: 150000 M⁻¹ s⁻¹
- Ka [2]: 3.7e+10 M⁻¹
- koff [2]: 4.2e-05 s⁻¹
- kon [2]: 150000 M⁻¹ s⁻¹
